B1: CPEB3 Ribozyme (parent)
chain: UAACAGGGGGCCACAGCAGAAGCGUUCACGUCGCAGCCCCUGUCAGAUUCUGGUGAAUCUGCGAAUUCUGCUGUAUAUCUC

In this data set the parent is B1. Kind of data set: self-cleavage, relative activity (ratio to wild type); higher = more cleavage; in vitro, sequencing. In outline: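 Libraries of CPEB3 self-cleaving ribozyme mutants came from rounds of error-prone PCR and carried barcodes, which DNA sequencing matched to variants. In vitro transcription used T7 RNA polymerase at 37°C for 5 hours, with a further 15 min in DNase I before EDTA stopped the reaction; the ribozymes cleaved during both steps. The RNA was reverse transcribed with template switching and sequenced on Illumina. Relative activity is the cleaved/total read fraction of a variant divided by that of the unmutated ribozyme, averaged over three batches with at least 5 reads.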
Turning to C37U C40A, the self-cleavage came to 0.21.

Consider C37U U80C, for which the self-cleavage was 0.74. On to C37U U80A, for which the self-cleavage turned out to be 0.99. As for C38U U72A, the self-cleavage worked out at 0.37.

On to C38U U72C, for which the self-cleavage is 1.01. C39G G70A: the self-cleavage was 0.15. Turning to C39A C68G, the self-cleavage was 0.17. Take C38A: the self-cleavage stood at 0.3. As to C38G, the self-cleavage turned out to be 0.26. Take C38U: the self-cleavage is 0.9.

As to C38A U67A, the self-cleavage came to 0.17. Take C37A U41C: the self-cleavage was determined as 0.25. As to C37A U41A, the self-cleavage stood at 0.19. As for C38A A56C, the self-cleavage is 0.1. Then C38A A56U, with 0.27; and C38A A56G, with 0.26; and C39A G70A, with 0.11. Consider C39A A65G, for which the self-cleavage worked out at 0.11. Consider C37A U49A, for which the self-cleavage stood at 0.13. Turning to C37A U49C, the self-cleavage was 0.11. Turning to C37G A75U, the self-cleavage turned out to be 1.13. Regarding C39U U54A, the self-cleavage came out at 0.95. Take C39U A47G: the self-cleavage was found to be 0.48. Then C39U A47U, with 0.42; and C37A C59U, with 0.24. For C37U G63U, the self-cleavage is 0.84. Regarding C37U G63A, the self-cleavage amounted to 0.54. Then C37U A56G, with 0.45; and C37U A56U, with 0.47.

For the variant C39U U60A, the self-cleavage was 0.43. For the variant C39U U60C, the self-cleavage was determined as 0.39.

Regarding C38G A77U, the self-cleavage came to 0.31. With C39U A57G, the self-cleavage was determined as 0.27.

Consider C37U U48C, for which the self-cleavage worked out at 0.36. Then C37G C59G, with 0.13; and C39U U43A, with 1.12. Then C39U U43C, with 0.35; and C38A U54C, with 0.29. Regarding C38A U54A, the self-cleavage was 0.56. Then C38U G53A, with 0.89; and C37G A64U, with 0.22. On to C37G A64G, for which the self-cleavage was 0.54.

C38U G55U: the self-cleavage was determined as 0.8.

As to C38U G55A, the self-cleavage is 0.4. As for C39G U72C, the self-cleavage is 0.3. In the case of C37A A45G, the self-cleavage stood at 0.26. Regarding C37A A45U, the self-cleavage stood at 0.23.

For C37A A45C, the self-cleavage came to 0.1. Turning to C37U U66A, the self-cleavage came out at 0.25. Regarding C39U A45U, the self-cleavage came out at 0.26.

As for C39U A45G, the self-cleavage worked out at 0.69. Regarding C37A U43C, the self-cleavage was determined as 0.43.

As to C37A U43A, the self-cleavage came to 0.14. With C37A A57G, the self-cleavage is 0.2. Then C38A A64C, with 0.15; and C38A A64U, with 0.09; and C37U C71U, with 0.38. Then C37U C71G, with 0.21; and C37G U69C, with 0.23. In the case of C37G U69A, the self-cleavage was 0.19.

In the case of C37A U48C, the self-cleavage is 0.41. On to C37A U48A, for which the self-cleavage was found to be 0.12.

Regarding C38A G63U, the self-cleavage is 0.1. For C39A U41A, the self-cleavage came to 0.27. Consider C39A U41C, for which the self-cleavage is 0.35.

For the variant C37G U43C, the self-cleavage is 0.29. On to C39A G73C, for which the self-cleavage is 0.76. On to C37U C79A, for which the self-cleavage turned out to be 1.11. Take C37U C79U: the self-cleavage came out at 1.03. In the case of C38A U58C, the self-cleavage is 0.24. Regarding C37A C71U, the self-cleavage is 0.2.

In the case of C37A U51C, the self-cleavage was found to be 0.17. For C38G U49A, the self-cleavage was determined as 0.26. For the variant C39G U80A, the self-cleavage turned out to be 0.09. For the variant C37U G55U, the self-cleavage was 0.88. Then C38G U43C, with 0.34. Take C38G U43A: the self-cleavage stood at 0.14. On to C37A U78A, for which the self-cleavage came to 0.2. With C37A U78C, the self-cleavage amounted to 0.35. On to C38U U60G, for which the self-cleavage was determined as 0.25. Then C38U U60C, with 0.33; and C37U A57G, with 0.58. Take C38U U78A: the self-cleavage was found to be 1.17. As for C38U U78C, the self-cleavage was determined as 0.67.

Consider C37U U78C, for which the self-cleavage worked out at 0.56. With C37U U78G, the self-cleavage is 1.

Take C38A A47C: the self-cleavage turned out to be 0.5. In the case of C38A A47G, the self-cleavage was determined as 0.2.

As to C37G U74C, the self-cleavage is 0.9. As for C37G U74A, the self-cleavage was determined as 1.13.

As to C37G G42U, the self-cleavage came to 0.29. Then C39G A65G, with 0.17; and C37U U43C, with 0.31; and C37U U43G, with 0.19. As to C39U U41A, the self-cleavage came out at 0.25. Regarding C39U U67C, the self-cleavage stood at 0.21. As to C38U U76C, the self-cleavage turned out to be 1.01. Take C38U U76A: the self-cleavage was 1.16. With C39A U69C, the self-cleavage turned out to be 0.16. Then C39A U69G, with 0.14; and C39A U69A, with 0.22; and C37U U69C, with 0.42.

In the case of C37U U69A, the self-cleavage is 0.2. As to C39G U41G, the self-cleavage turned out to be 0.13. As to C39G U41A, the self-cleavage turned out to be 0.21. On to C39U G46U, for which the self-cleavage turned out to be 0.11.

For the variant C38U U48C, the self-cleavage turned out to be 0.35.

As to C38A U80C, the self-cleavage turned out to be 0.41.

For the variant C38A U80A, the self-cleavage was 0.11.

C37U G73A: the self-cleavage was 1.43. On to C38A U72A, for which the self-cleavage came out at 0.34. As for C38A U72G, the self-cleavage turned out to be 0.17. Take C38A U72C: the self-cleavage stood at 0.53. On to C39A U78C, for which the self-cleavage turned out to be 0.26.

In the case of C39A U78A, the self-cleavage was determined as 0.43. Turning to C38A A57G, the self-cleavage was found to be 0.19. Then C37U U54A, with 0.82; and C37U U54C, with 0.79. As for C39U C79U, the self-cleavage was found to be 1.02. Then C39A A47G, with 0.35; and C39A A47C, with 0.2.

Consider C37A C39A, for which the self-cleavage worked out at 0.29.

For the variant C38A U41C, the self-cleavage turned out to be 0.43. Take C38A U41A: the self-cleavage stood at 0.19. Then C39A U80C, with 0.26; and C39A U80A, with 0.3; and C38A A65U, with 0.28.

For C37A U69A, the self-cleavage was 0.12.

For the variant C37U U49A, the self-cleavage worked out at 0.38. Turning to C37U U49C, the self-cleavage worked out at 0.37. Then C38G U69A, with 0.19. Then C37A A64G, with 0.25. In the case of C39U A56G, the self-cleavage came out at 0.48. C39U A56U: the self-cleavage is 0.32.

On to C38G U80C, for which the self-cleavage is 0.56.

Regarding C38G U80A, the self-cleavage was 0.26. Regarding C37G C68A, the self-cleavage is 0.18. Then C37G C44A, with 0.39. As for C38A U43A, the self-cleavage was found to be 0.34. Take C38U A77G: the self-cleavage stood at 0.74. With C38U G70U, the self-cleavage is 0.38. Consider C37G A45G, for which the self-cleavage came out at 0.7.

As for C37G A45U, the self-cleavage was 0.13.

Regarding C37U U41A, the self-cleavage stood at 0.18.

In the case of C37U U41C, the self-cleavage turned out to be 0.89. Then C37U G70A, with 0.32; and C37A U72C, with 0.33. Consider C38A U69A, for which the self-cleavage worked out at 0.19. On to C39A U72C, for which the self-cleavage was 0.32. Consider C39A U72A, for which the self-cleavage is 0.35. Take C37A A77U: the self-cleavage stood at 0.28. C37A A77G: the self-cleavage was found to be 0.18. C38A G42C: the self-cleavage stood at 0.28.

For C38A C40U, the self-cleavage turned out to be 0.22. C38A C40A: the self-cleavage worked out at 0.05.

With C39U A64U, the self-cleavage was 0.36. Take C39A A45G: the self-cleavage stood at 0.33. For C39U U51G, the self-cleavage came out at 0.89. On to C39U U51A, for which the self-cleavage was determined as 1.06. With C37G A57G, the self-cleavage amounted to 0.44. For the variant C38U U43C, the self-cleavage came to 0.28. Turning to C37U A64U, the self-cleavage was found to be 0.27. In the case of C37U A64G, the self-cleavage worked out at 0.6.

For the variant C38U U80G, the self-cleavage came out at 1.03. C38U U80A: the self-cleavage is 0.96. In the case of C38U U80C, the self-cleavage worked out at 1.01. Take C37G A77U: the self-cleavage was 0.61.

The values above are taken from the RNAGym collection of RNA variant scans (doi:10.1093/nar/gkz1192).
